One data set has as its target T1, CrtR (CrtRHis6, His-tagged CrtR) (Corynebacterium glutamicum, UniProt Q8NSP1).
T1 construct: gene Cgl0627; full length, 195 aa; N-terminal His-tag (pET16b, decahistidine) kept; expressed in E. coli BL21(DE3); Ni-NTA purified; cloning primers give N-terminus MLNMQE and C-terminus WLNTE
T1 sequence (Q8NSP1 1-195): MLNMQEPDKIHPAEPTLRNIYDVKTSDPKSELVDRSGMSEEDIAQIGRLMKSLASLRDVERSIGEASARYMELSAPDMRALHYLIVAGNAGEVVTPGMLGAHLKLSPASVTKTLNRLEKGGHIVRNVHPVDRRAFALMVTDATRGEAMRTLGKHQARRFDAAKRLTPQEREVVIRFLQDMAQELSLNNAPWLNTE
Put plainly: EMSA, loss of CrtR binding to crtE-crtR intergenic DNA. The following applies: 30-fold molar excess CrtR over DNA; 15 min pre-incubation, room temperature; 50 mM Tris-HCl pH 7.5, 50 mM KCl, 10 mM MgCl2.
Turning to `CC(C)=CCOP(=O)(O)OP(=O)(O)O` [DMAPP, dimethylallyl pyrophosphate], the “EMSA, loss of CrtR binding to crtE-crtR intergenic DNA” value (from here on “EMSA, loss of CrtR binding”) is “FPP, GPP, IPP and DMAPP exerted similar effects on CrtR binding in vitro”. For the molecule `CC(C)=CCC/C(C)=C/CC/C(C)=C/COP(=O)(O)OP(=O)(O)O` [FPP, farnesyl pyrophosphate], the “EMSA, loss of CrtR binding” value was “farnesyl pyrophosphate (FPP) and GGPP perturbed binding of His-tagged CrtR to the intergenic region”.

Consider `C=C(C)CCOP(=O)(O)OP(=O)(O)O` [IPP, isopentenyl pyrophosphate], for which the “EMSA, loss of CrtR binding” value was “FPP, GPP, IPP and DMAPP exerted similar effects on CrtR binding in vitro”. Consider `CC(C)=CCC/C(C)=C/COP(=O)(O)OP(=O)(O)O` [GPP, geranyl pyrophosphate], for which the “EMSA, loss of CrtR binding” value is “FPP, GPP, IPP and DMAPP exerted similar effects on CrtR binding in vitro”.

In a further data set the target is T2, CrtR (His-tagged) (Corynebacterium glutamicum ATCC 13032) (UniProt Q8NSP1).
T2 sequence: T1 sequence (Q8NSP1 1-195)
Put plainly: EMSA. The following applies: 50 mM Tris-HCl pH 7.5, 10% glycerol, 50 mM KCl, 10 mM MgCl2, 0.5 mM EDTA, 20 uL, 90 ng DNA, 30 min at room temperature; 6% DNA retardation gel.
For the molecule “CACCAATACTACGTTCCACATCGCGAAGACTGGCCAACGATTTCATTAGCCGCCCAATTTGCGCAATGTCTTCTTCCGACATGCCAGAACGATCAACTAATTCACTTTTGGGATCACTAGTTTTAACGTCATAAATATTACGAAGTGTAGGTTCTGCCGGATGGATTTTATCTGGTTCCTGCATATTCAGCATAGTAATCACCTTTTTCTACAAAGTCAGATAAAGTTTATTTTT (double strand) [fragment G]”, the binding result is given as “no binding”. For the molecule “CACCAATACTACGTTCCACATCGCGAAGACTGGCCAACGATTTCATTAGCCGCCCAATTTGCGCAATGTCTTCTTCCGACATGCCAGAACGATCAACTAATTCACTTTTGGGATCACTAGTTTTAACGTCATAAATATTACGAAGTGTAGGTTCTGCCGGATGGATTTTATCTGGTTCCTGCATATTCAGCATAGTAATCACCTTTTTCTACAAAGTCAGATAAAGTTTATTTTTAAAAATATTAACTCATGGG (double strand) [fragment F]”, the binding result is “binds”.

Turning to “AAAAATAGGCCCTCATGGGATACTATAAATTTCTTGTAGGCACATTATTTTTATGGACCCAAATTCACACTTTCTGTACTTCATCAAAATAAAGCGCCATATACAACGATTGGGAATTTTTGCGAGATAACTGGCCGTGTGATACTCGA (double strand) [fragment I (motif 1 TTAA to GGCC)]”, the binding result is “no binding”. Regarding “CATAAAAATAATGTGCCTACAAGAAATTTATAGTATCCCATGAGTTAATATTTTTAAAAATAAACTTTATCTGACTTTGTAGAAAAAGGTGATTACTATGCTGAATATGCAGGAACCAGATAAAATCCATCCGGCAGAACCTACACTTCGTAATATTTATGACGTTAAAACTAGTGATCCCAAAAGTGAATTAGTTGATCGTTCTGGCATGTCGGAAGAAGACATTGCGCAAATTGGGCGGCTAATGAAATCGTTGGCCAGTCTTCGCGATGTGGAACGTAGTATTGGTG (double strand) [fragment D]”, the binding entry is recorded as “binds”. Consider “AACTCATGGGATACTATAAATTTCTTGTAGGCACATTATTTTTATGGACCCAAATTCACACTTTCTGTACTTCATCAAAATAAAGCGCCATATACAACGATTGGGAATTTTTGCGAGATAACTGGCCGTGTGATACTCGA (double strand) [fragment B]”, for which the binding entry is “no binding”. With “AAAAATATTAACTCATGGGATACTATAAATTTCTTGTAGGCACATTATTTTTATGGACCCAAATTCACACTTTCTGTACTTCATCAAAATAAAGCGCCATATACAACGATTGGGAATTTTTGCGAGATAACTGGCCGTGTGATACTCGA (double strand) [fragment C]”, the binding entry is given as “binds”. As to “CACCAATACTACGTTCCACATCGCGAAGACTGGCCAACGATTTCATTAGCCGCCCAATTTGCGCAATGTCTTCTTCCGACATGCCAGAACGATCAACTAATTCACTTTTGGGATCACTAGTTTTAACGTCATAAATATTACGAAGTGTAGGTTCTGCCGGATGGATTTTATCTGGTTCCTGCATATTCAGCATAGTAATCACCTTTTTCTACAAAGTCAGATAAAGTTTATTTTTAAAAATATTAACTCATGGGATACTATAAATTTCTTGTAGGC (double strand) [fragment E]”, the binding result is reported as “binds”. For the molecule “TCGAGTATCACACGGCCAGTTATCTCGCAAAAATTCCCAATCGTTGTATATGGCGCTTTATTTTGATGAAGTACAGAAAGTGTGAATTTGGGTCCATAAAAATAATGTGCCTACAAGCCCGGGATAGTATCCCATGAGGGCCTATTTTT (double strand)”, the binding entry is “no binding”.

With “ATTCAGCATAGTAATCACCTTTTTCTACAAAGTCAGATAAAGTTTATTTTTAAAAATATTAACTCATGGGATACTATAAATTTCTTGTAGGCACATTATTTTTATGGACCCAAATTCACACTTTCTGTACTTCATCAAAATAAAGCGCCATATACAACGATTGGGAATTTTTGCGAGATAACTGGCCGTGTGATACTCGA (double strand) [fragment A (full crtE-crtR intergenic region)]”, the binding entry is recorded as “binds”. Same read-out and setting: the entry for “GTTCGCTACGTCCGAGTGATCACCTACAAGGACGTCAACATCGAAGAATTAGATAAGCCTGACATCATCATGCCTGAG (double strand) [cg2228 upstream fragment]” is “no binding”; for “AAAAATATTAACTCATGGGATACTATCCCGGGCTTGTAGGCACATTATTTTTATGGACCCAAATTCACACTTTCTGTACTTCATCAAAATAAAGCGCCATATACAACGATTGGGAATTTTTGCGAGATAACTGGCCGTGTGATACTCGA (double strand) [fragment H (motif 2 AAATTT to CCCGGG)]” it is “binds”.

For another data set, the target named is T1, CrtR (CrtRHis6, His-tagged CrtR). Put plainly: EMSA, loss of CrtR binding to crtE-crtR intergenic DNA. The following applies: 30-fold molar excess CrtR over DNA; 15 min pre-incubation, room temperature; 50 mM Tris-HCl pH 7.5, 50 mM KCl, 10 mM MgCl2. This is another data set of the same source.
For `CC(C)=CCC/C(C)=C/CC/C(C)=C/CC/C(C)=C/COP(=O)(O)OP(=O)(O)O` [GGPP], the lowest effective concentration is 50 µM.
